Results published in patent publication US5336488A, “Method of treating or preventing mastitis in animals with involuting mammary glands by administering recombinant cytokines” (American Cyanamid Company, priority 1992, dated 1994).

Key:
Bovine Mammary Gland = assay: Dose response of bovine mammary gland to intramammary infusion: somatic cell influx into milk; format: in vivo, bovine (Holstein dairy cattle); settings: for infiltration of somatic cells into the milk: lactating cattle, FIG. 1; for minimal effective dose: somatic cell influx
Protocol: FIG. 1: Dose Response of Bovine Mammary Gland to Intramammary Infusion of Recombinant Cytokines
Five fold serial dilutions of r-BolL-1 (recombinant bovine interleukin-1) from 312.5 μg to […]: r-BoIL-2 (recombinant bovine interleukin-2) from 40 mg to 0.1 mg: and r-BoGM-CSF (recombinant bovine granulocyte macrophage colony stimulating factor) from 0.2 mg to […] are administered at time 0 into 3-4 mammary glands from normal lactating Holstein dairy cattle. A total of 54 mammary gland quarters, 3-4 per group, are infused through the teat canal with various concentrations of recombinant bovine cytokines after the morning milking. Milk samples are collected and the number of viable somatic cells counted on a Coulter® ZM with a C256 Channelyzer. The data is expressed as the somatic cell count per ml of milk
These doses are guidelines for quantitative induction of somatic cells, but significant beneficial qualitative changes can be induced with lower doses. The specific biological activity for r-BoIL-1 as a chemoattractant is approximately 10,000 fold greater than r-BoIL-2, although the in vitro specific bioactivities are equivalent. Active IL-2 inhibition or decreased biostability in milk might explain this discrepancy. The peak number of cells after r-BoIL-1 infusion with a maximal tolerable dose is 4-5 fold greater than r-BoIL-2. The kinetics of PMN migration into the mammary gland is such that migration occurs 8- 24 hours sooner for r-BoIL-1 infusions […] the BolL-2 infusion depending upon the dose. The dominant cell type after r-BoIL-1 or r-BoIL-2 infusion is PMNs.

[1] = Milk production in lactating glands after intramammary infusion or intramuscular injection; format: in vivo, bovine (lactating dairy cows); settings: for decrease of milk production: FIG. 3A
Protocol: FIGS. 3(A-I): Milk Production After Intramammary Infusion or Intramuscular Injection of r-BoIL-2 into Lactating Dairy Cows
Mean milk production in kilograms +/- Standard Error is recorded for 8 lactating dairy cows after intramammary infusion of r-BoIL-2 or no treatment. Data is shown as a percentage of the average milk production (Standard Deviation) compared to the first five days prior to Treatment (mean for 100% production level ). Production after r-BoIL-2 intramammary infusion with total dosing amounting to 4.5 mg or 13.5 mg in quarters infected with S. aureaus is compared to infected, untreated cows for a 6 day time period, panel A. Similarly, production is also followed in 7 lactating injections of r-BoIL-2 at 2.5 μg/kg/day for 5 days and compared to 3 normal PBS injected controls, panel B. All cows are in mid to late stages of their second or third lactation at the time of r-BoIL-2 therapy. All effects on milk production are transient, returning to pre-treatment levels within 96 hours after cessation of treatment.
In vivo measurement of daily milk production is also monitored for both intramammary infusions and intramuscular injection. Cows are milked morning and evening and the milk weighed and recorded in total kilograms per day. The total dose of IL-2 administered per cow ranges from 2 to 96 mg. Single or multiple intramammary infusions of IL-2 have variable effects on individual animal's milk production based upon the total dose of r-BoIL-2 administered per day, FIG. 3 A (INTRAMAMMARY). Production decreases as much as 30-40% by the third infusion in the high dose animals (13.5 mg), whereas only a 12% decrease is observed at the 4.5 mg dose (not statistically different from time 0 production or control animals). […] This induction would be of great significance to assist in the morphological changes required during early lactation and serves to accelerate the protective mechanisms.

[2] = tested on: IL-2 dependant BT-2 T cell line; assay: Residual r-BoIL-2 bioactivity in dry cow gland secretions (BT-2 bioassay); format: in vivo, bovine
Protocol: FIGS. 4(A-B): Measurement of Residual r-BoIL-2 Bioactivity in Secretions from Dry Cow Glands Infused with r-BolL-2
Secretions from 4 quarters (4 different cows) are infused with 1 mg of r-BoIL-2 at drying-off (2 quarters) or not treated with r-BoIL-2 (2 quarters). Dry gland secretions are collected at time 0,72,144 and 240 hours after infusion. All samples shown are from the 72 hour time point and are diluted 1:50 and 1:200, and assayed for amount of biologically active r-BoIL-2 using the IL-2 dependant BT-2 T cell line, panel B. The BT-2 cell line is a bovine T cell line which requires IL-2 for growth. By measuring the degree of proliferation of this cell line, one directly measures the amount of biologically active IL-2 in a test media. Data is expressed as a mean ^3 H-thymidine incorporation +/- S.D. of triplicate samples of BT-2 cells for each of the individual numbered animals. […] A standard assay of various concentrations of r-BoIL-2 in 2% dry secretions is also shown in panel A as a positive control.
To specifically study the presence of cytokines after a single intramammary infusion into dry cows, […] from four different cows, are infused with 1 mg r-BoIL-2 at dry-off. […] Secretions from dry cow quarters treated with 1 mg of r-BoIL-2 are collected at 72, 144 and 240 hours after dry cow treatment. As with the milk, a 1:50 dilution of dry secretion samples is made and these solutions assayed by the bioassay using BT-2 and compared to r-BoIL-2 diluted in media.

[3] = tested on: PMNs from mammary glands early in involution; assay: Phagocytic activity of cells from dry cow secretions after cytokine treatment; format: in vivo, bovine (Holstein dairy cattle); settings: treatment with IL-2
Protocol: FIG. 5: Phagocytic Ability of PMNs After Cytokine Administration from Mammary Glands Early in Involution
A total of 4 mammary glands from 2 Holstein dairy cattle just entering the dry period are used. All quarters had been infected with S. aureaus for 4-6 weeks prior to treatment. Two of the quarters are treated with Cefa-Dri® and 2 quarters are treated with Cefa-Dri®+1 mg bovine IL-2 by intramammary infusion immediately following the last milking prior to drying-off. Dry cow secretions are then collected at day 3 and day 6 of the dry-off period and the number of viable somatic cells counted on a Coulter® with a C256 Channelyzer. The total percentage of phagocytosis by PMNs is quantitatively measured by flow cytometry by measuring the percentage of cells ingesting 2μ fluorescent beads.
Somatic cells are isolated from mammary gland lavages on days 3 and 6 after treatment with Cefa-Dri® plu6 IL-2 or Cefa-Dri® alone. The cells are incubated with fluorescent latex micropheres and analyzed on the flow cytometer for their ability to phagocytize the beads.

B1: recombinant bovine interleukin-1 (protein, UniProt P09428 114-266, looked up)
Interleukin-1 beta: APVQSIKCKLQDREQKSLVLASPCVLKALHLLSQEMNREVVFCMSFVQGEERDNKIPVALGIKDKNLYLSCVKKGDTPTLQLEEVDPKVYPKRNMEKRFVFYKTEIKNTVEFESVLYPNWYISTSQIEERPVFLGHFRGGQDITDFRMETLSP
notes: recombinant bovine interleukin-1, obtained from IMMUNEX Corp. Seattle, WA
- PMN migration into the mammary gland occurs sooner than with BoIL-2 infusion (Bovine Mammary Gland; depending upon the dose): 8 to 24 h
- dominant cell type after infusion (Bovine Mammary Gland; intramammary infusion): PMNs
- maximal tolerable dose (Bovine Mammary Gland; intramammary infusion): 1000 mg
- infiltration of somatic cells into the milk (Bovine Mammary Gland; intramammary infusion): induce an infiltration of somatic cells into the milk in a dose related manner
- specific biological activity as a chemoattractant, greater than r-BoIL-2 (Bovine Mammary Gland; intramammary infusion, relative to r-BoIL-2): approximately 10,000 fold
- minimal effective dose (Bovine Mammary Gland; intramammary infusion): 0.5 mg
- peak number of cells after infusion, greater than r-BoIL-2 (Bovine Mammary Gland; maximal tolerable dose, relative to r-BoIL-2): 4-5 fold

B2: recombinant bovine interleukin-2 (protein, UniProt P05016 21-155, looked up)
Interleukin-2: APTSSSTGNTMKEVKSLLLDLQLLLEKVKNPENLKLSRMHTFDFYVPKVNATELKHLKCLLEELKLLEEVLNLAPSKNLNPREIKDSMDNIKRIVLELQGSETRFTCEYDDATVNAVEFLNKWITFCQSIYSTMT
notes: recombinant bovine interleukin-2, obtained from IMMUNEX Corp. Seattle, WA
- dominant cell type after infusion (Bovine Mammary Gland; intramammary infusion): PMNs
- maximal tolerable dose (Bovine Mammary Gland; intramammary infusion): 30 mg
- infiltration of somatic cells into the milk (Bovine Mammary Gland; intramammary infusion): induce an infiltration of somatic cells into the milk in a dose related manner
- minimal effective dose (Bovine Mammary Gland; intramammary infusion): 0.5 mg
- time to return of milk production to pre-treatment levels after cessation of treatment ([1]; intramammary or intramuscular r-BoIL-2): ≤ 96 h
- decrease of milk production ([1]; intramammary, 4.5 mg, not statistically different from time 0 or control): 12%
- decrease of milk production ([1]; intramammary, 13.5 mg, by the third infusion): 30-40%
- effect on milk production ([1]; intramammary, total dose less than 4.5 mg): No statistically significant effect on milk production
- detectable r-BoIL-2 bioactivity in dry gland secretions ([2]; 1 mg intramammary at dry-off, 72 hours after infusion, 1:50 dilution): less than 0.024 .eta.g/ml
- residual r-BoIL-2 bioactivity in secretions ([2]; 1 mg intramammary at drying-off, 72, 144, 240 hours): No r-BoIL-2 activity could be detected at any time point
- biologically active IL-2 in dry cow secretions ([2]; after 3 days, FIG. 4): no biologically active IL-2 is detected after 3 days
- phagocytic activity of cells of the dry gland [3]: seems to enhance the phagocytic activity of cells of the dry gland
